Assay results from patent US20090269346A1 (RAPTOR PHARMACEUTICAL, published 2009).

Key:
[1] = target: T1, LRP1 CR3-5 (human); assay: solid-phase assay, coated CR protein, anti-RAP, OD450
T1 construct: range 852-973; Amplified from human cDNA; also called L1 CR3-5
Description: (§1) Solid phase binding assays-Purified, refolded CR protein (1 μg) was bound to Nunc Maxisorp™ 96-well plates in TBS pH 8 supplemented with 5 mM CaCl₂ (TBSC) overnight at 4° C. Wells were washed with TBSC and then blocked with TBSC containing 2% bovine serum albumin (BSA). RAP ligands were then incubated with the immobilized receptor at a range of concentrations for 2 hours in the above blocking buffer supplemented with 0.05% Tween-20 at room temperature. Control wells contained no added ligand. As an additional control, to determine whether the absence of calcium affected binding, 10 mM EGTA was included in the incubation medium for some samples. Wells were washed with TBSTC and bound ligands detected with polyclonal anti-RAP (BP41/42, 1:1,000, BioMarin). Excess primary antibody was removed and wells washed before incubation with the secondary antibody, HRP-conjugated goat anti rabbit IgG (Bio-Rad). After washing, TMB substrate solutions (Bio-Rad) were added to detect HRP. Color development was stopped with 1N HCl. Absorption at 450 nm was measured with a microplate spectrophotometer (Molecular Devices). Data were plotted and Kd values derived by non-linear regression with the assumption of single-site binding (GraphPad Prism).
(§2) Additional assays were performed to assess the binding of wild-type RAP d3 (SEQ ID NO: 92) to each CR pair or set of overlapping pairs was then measured by solid-phase assay (FIG. 5B). Diluted samples were incubated with each test protein, immobilized in multiwell plates. Binding assays were performed as described in Methods. Two independent experiments were performed with triplicate wells for each sample. Means and standard deviations were calculated from the combined values from both experiments and plotted against ligand concentration. Curves were fitted using non-linear regression with a single-site binding model (GraphPad Prism). Kd values with standard deviations were derived from the fitted curves. In all cases, 10 mM EGTA removed >85% of the mean binding signal at the highest concentration of ligand tested.

[2] = target: T2, VLDLR CR6-8 (human, UniProt P98155 235-358); assay: as above
T2 construct: range 235-358; also called V CR6-8; not shown: N-terminal hexahistidine and S-peptide from pET30(+)a
Description: as §1, §2

[3] = target: T3, LRP2 CR89 (human, UniProt P98164 1025-1102); assay: as above
T3 construct: domain: CR8 and CR9; also called YVWR; L2 CR89; not shown: N-terminal hexahistidine and S-peptide from pET30(+)a
T3 sequence (P98164 1025-1102): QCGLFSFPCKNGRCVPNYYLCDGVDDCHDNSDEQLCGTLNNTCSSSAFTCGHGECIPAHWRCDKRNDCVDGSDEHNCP
Description: as §1, §2

[4] = target: T4, LRP2 CR89 V1047D (human, UniProt P98164 1022-1105); assay: as above
T4 construct: also called YDWR
T4 chain: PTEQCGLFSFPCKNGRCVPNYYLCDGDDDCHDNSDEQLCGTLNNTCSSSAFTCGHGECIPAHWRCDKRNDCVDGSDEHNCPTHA
Description: as §1
(§3) One premise of this work was that amino acids at A, C, A′ and C′ within the calcium-binding loops of a CR pair were key determinants of binding affinity for RAP and would be similarly important for binding of RAP variants. To test this idea, we prepared mutants of LRP2 CR89 in which the native, non-canonical residues at these positions were sequentially substituted with the non-native, canonical residues. As defined above, the A, C, A′, C′ string for LRP2 CR89 is YVWR. Mutants included LRP2 CR89 Y1042W (WVWR), LRP2 CR89 V1047D (YDWR), LRP2 CR89 R1088D (YVWD), LRP2 CR89 V1047D R1088D (YDWD), LRP2 CR89 Y1042W V1047D R1088D (WDWD), LRP2 CR89 Y1042W V1047D (WDWR), LRP2 CR89 Y1042W R1088D (WVWD). Binding to both RAP d3 and RAPv2A d3 were measured for each LRP2 CR89 mutant by solid-phase assay. Samples were tested in triplicate. OD values from uncoated wells, receptor-coated wells incubated with buffer alone, and uncoated wells incubated with the highest ligand concentration all gave similar values for all conditions tested.

[5] = target: T3, LRP2 CR89; assay: as above; remark: listed apart in the source
Description: as §1, §3

[6] = target: T5, LRP2 CR89 Y1042W R1088D (human, UniProt P98164 1022-1105); assay: as above
T5 construct: also called WVWD
T5 chain: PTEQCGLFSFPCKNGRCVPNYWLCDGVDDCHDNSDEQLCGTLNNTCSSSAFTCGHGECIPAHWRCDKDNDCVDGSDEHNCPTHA
Description: as §1, §3

[7] = target: T6, LRP2 CR89 Y1042W V1047D R1088D (human, UniProt P98164 1022-1105); assay: as above
T6 construct: also called WDWD
T6 chain: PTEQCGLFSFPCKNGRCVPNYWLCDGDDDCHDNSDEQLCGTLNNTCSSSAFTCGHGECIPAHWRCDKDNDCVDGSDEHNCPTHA
Description: as §1, §3

[8] = target: T7, LRP2 CR89 Y1042W (human, UniProt P98164 1022-1105); assay: as above
T7 construct: also called WVWR
T7 chain: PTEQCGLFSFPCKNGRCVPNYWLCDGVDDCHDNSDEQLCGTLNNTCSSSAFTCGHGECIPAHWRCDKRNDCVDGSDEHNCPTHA
Description: as §1, §3

[9] = target: T8, LRP2 CR89 V1047D R1088D (human, UniProt P98164 1022-1105); assay: as above
T8 construct: also called YDWD
T8 chain: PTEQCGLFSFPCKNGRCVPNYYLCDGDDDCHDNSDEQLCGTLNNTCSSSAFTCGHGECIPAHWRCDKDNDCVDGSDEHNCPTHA
Description: as §1, §3

[10] = target: T9, LRP2 CR89 R1088D (human, UniProt P98164 1022-1105); assay: as above
T9 construct: also called YVWD
Description: as §1, §3

[11] = target: T1, LRP1 CR3-5; assay: solid-phase assay, coated CR protein, anti-RAP, OD450; apparent Kd repeated from Table 1; unit inferred, nM taken from paragraph 284

T1 sequence (Q07954 852-973): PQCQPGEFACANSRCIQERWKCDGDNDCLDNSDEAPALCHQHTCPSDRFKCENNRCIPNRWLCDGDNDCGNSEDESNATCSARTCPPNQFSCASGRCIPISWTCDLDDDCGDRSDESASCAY

B1: wild-type RAP d3 (ligand)
chain: LDRLRRVSHQGYSTEAEFEEPRVIDLWDLEQSANLTDKELEAFREELKHFEAKIEKHNHYQKQLEIAHEKLRHAESVGDGERVSRSREKHALLEGRTKELGYTVKKHLQDLSGRISRAR
notes: expressed in E. coli from pET30(+)a; not shown: vector-encoded N-terminal tags of pET30(+)a (hexahistidine and S-peptide, as stated for the CR constructs)
[1]
  Kd: 11 nM
[2]
  Kd: > 300 nM
[3]
  Kd: > 300 nM
[4]
  % max bind: 6%
[5]
  % max bind: 7%
[6]
  % max bind: 16%
[7]
  % max bind: 15%
[8]
  % max bind: 9%
[9]
  % max bind: 6%
[10]
  % max bind: 7%
[11]
  Kd: 16 nM
